Where a chain is given by its changes, count along the chain named.
B1: His-FLAG-FRB T2098L (other)
chain: MGHHHHHHHHGSDYKDDDDKGSASRILWHEMWHEGLEEASRLYFGERNVKGMFEVLEPLHAMMERGPQTLKETSFNQAYGRDLMEAQEWCRKYMKSGNVKDLLQAWDLYYHVFRRISKTS
notes: The entry already carries the mutation
B2: His-FLAG-FRB E2032I (other)
chain: B1 chain with E37I, L103T
notes: as for B1
B3: His-FLAG-FRB E2032L (other)
chain: B1 chain with E37L, L103T
notes: as for B1
B4: His-FLAG-FRB (wild-type FRB) (other)
chain: B1 chain with L103T
notes: also called wild type Flag-FRB

Target: T1, His-Avidin-FKBP (wild-type FKBP) (biotinylated)
T1 construct: also called biotinylated wild-type FKBP; biotinylated FKBP
T1 sequence (chain, as listed by the source limits assumed): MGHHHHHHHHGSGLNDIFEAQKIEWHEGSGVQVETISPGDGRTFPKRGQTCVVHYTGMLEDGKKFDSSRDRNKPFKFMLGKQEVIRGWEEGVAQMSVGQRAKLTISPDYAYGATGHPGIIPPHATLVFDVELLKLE
Experiment: AlphaLISA direct binding assay, EC50 relative to wild type FLAG-FRB
Description: (§1) FRB mutations were also ranked in an alternative assay format. […] All dilutions were made in 1× AlphaLISA Immunoassay buffer (PerkinElmer). Anti-Flag acceptor beads (PerkinElmer) were added at 10 ug/ml final concentration and incubated for one hour at room temperature. Streptavidin donor beads (PerkinElmer), were then added at a final concentration of 40 ug/ml and the plate was protected from light and incubated for 30 minutes at room temperature. The plate was then read on the PerkinElmer EnVision Multiplate reader equipped with the Alpha Module using excitation of 680 nm and a 570 nm Emission filter.

Row | fold improvement over wild type FRB | Binder
1 | 3 fold | B1
2 | 1.5 to 2 fold | B2
3 | 1.5 to 2 fold | B3

Target: T1, His-Avidin-FKBP (wild-type FKBP)
Experiment: AlphaLISA direct binding assay: 30 nM FLAG-FRB and 30 nM biotinylated FKBP, everolimus titrated 1:3 from 600 nM (EC50 is of everolimus)
Description: as §1

Row | EC50 | Binder
4 | 3.9 nM | B4
5 | 1.44 nM | B1
6 | 2.46 nM | B2
7 | 2.15 nM | B3

Source: patent US10287354 (Novartis, dated 2019)
